Measurements as given in US20030148958A1 (PROCTER AND GAMBLE, published 2003).
Ends that are not written are not given here.

T1: corticotropin releasing factor 2 receptor
T1 sequence (Q13324 whole entry, species assumed, looked up): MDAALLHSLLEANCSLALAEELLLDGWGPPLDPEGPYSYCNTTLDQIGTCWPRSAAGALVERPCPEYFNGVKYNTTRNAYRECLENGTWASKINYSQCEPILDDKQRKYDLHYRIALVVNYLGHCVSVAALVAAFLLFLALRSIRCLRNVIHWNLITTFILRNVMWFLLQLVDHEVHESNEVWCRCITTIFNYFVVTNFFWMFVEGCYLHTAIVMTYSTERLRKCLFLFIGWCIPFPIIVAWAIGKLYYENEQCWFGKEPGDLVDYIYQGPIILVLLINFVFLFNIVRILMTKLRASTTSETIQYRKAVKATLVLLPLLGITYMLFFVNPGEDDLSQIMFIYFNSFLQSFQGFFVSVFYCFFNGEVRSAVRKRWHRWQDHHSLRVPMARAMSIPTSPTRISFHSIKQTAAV

B1: SEQ ID NO 88 (peptide)
peptide: SQEPPISLDLTFGLLREVLEMTKADQLAQQAHSNRKLLDIA-NH2
B2: SEQ ID NO 90 (peptide)
peptide: SQEPPISLDLPLGLLREVLEMTKADQLAQQAHSNRKLLDIA-NH2
B3: SEQ ID NO 91 (peptide)
peptide: SQEPPISLDLPFQLLREVLEMTKADQLAQQAHSNRKLLDIA-NH2
B4: SEQ ID NO 92 (peptide)
peptide: SQEPPISLDLPTELLREVLEMTKADQLAQQAHSNRKIIDIA-NH2
B5: SEQ ID NO 93 (peptide)
peptide: SQEPPISLDLPIGLLREVLEMTKADQLAQQAHSNRKLLDIA-NH2
B6: SEQ ID NO 94 (peptide)
peptide: SQEPPISLDLPIHLLREVLEMTKADQLAQQAHSNRKLLDIA-NH2
B7: SEQ ID NO 95 (peptide)
peptide: SQEPPISLDLPLQLLREVLEMTKADQLAQQAHSNRKLLDIA-NH2
B8: SEQ ID NO 96 (peptide)
peptide: SQEPPISLDLPFYLLREVLEMTKADQLAQQAHSNRKLLDIA-NH2
B9: SEQ ID NO 7 (peptide)
peptide: SQEIVLSLDVPIGLLREVLEMTKADQLAQQAHSNRKLLDIA-NH2
B10: SEQ ID NO 97 (peptide)
peptide: SQEPPISLDLPFELLREVLEMTKADQLAQQAHSNRKLLDIA-NH2
B11: SEQ ID NO 98 (peptide)
peptide: SQEPPISLDLPTGLLREVLEMTKADQLAQQAHSNRKLLDIA-NH2
B12: SEQ ID NO 99 (peptide)
peptide: SQEPPISLDLPTHLLREVLEMTKADQLAQQAHSNRKLLDIA-NH2
B13: SEQ ID NO 100 (peptide)
peptide: SQEPPISLDLPIQLLREVLEMTKADQLAQQAHSNRKLLDIA-NH2
B14: SEQ ID NO 101 (peptide)
peptide: SQEPPISLDLPLYLLREVLEMTKADQLAQQAHSNRKLLDIA-NH2
B15: SEQ ID NO 102 (peptide)
peptide: SQEPPISLDLPLHLLREVLEMTKADQLAQQAHSNRKLLDIA-NH2
B16: SEQ ID NO 103 (peptide)
peptide: SQEPPISLDLPFGLLREVLEMTKADQLAQQAHSNRKLLDIA-NH2
B17: SEQ ID NO 104 (peptide)
peptide: SQEPPISLDLPFHLLREVLEMTKADQLAQQAHSNRKLLDIA-NH2
B18: SEQ ID NO 105 (peptide)
peptide: SQEPPISLDLPTQLLREVLEMTKADQLAQQAHSNRKLLDIA-NH2
B19: SEQ ID NO 106 (peptide)
peptide: SQEPPISLDLPTYLLREVLEMTKADQLAQQAHSNRKLLDIA-NH2
B20: SEQ ID NO 9 (peptide)
peptide: IVLSLDVPIGLLQILLEQARARAAREQATTQARILARV-NH2
B21: SEQ ID NO 108 (peptide)
peptide: IVLSLDVPIGLLQILLEQTKADAAREQATTNARILARV-NH2
B22: SEQ ID NO 109 (peptide)
peptide: IVLSLDVPIGLLQILLEQAKARAAREQATTNARILARV-NH2
B23: SEQ ID NO 110 (peptide)
peptide: IVLSLDVPIGLLQILLEQAKQRAAREQATTNARILARV-NH2
B24: SEQ ID NO 111 (peptide)
peptide: IVLSLDVPIGLLQILLEQERQRAAREQATTNARILARV-NH2
B25: SEQ ID NO 112 (peptide)
peptide: IVLSLDVPIGLLQILLEQAKAEAAREQATTNARILARV-NH2
B26: SEQ ID NO 113 (peptide)
peptide: IVLSLDVPIGLLQILLEQERAEAAREQATTNARILARV-NH2
B27: SEQ ID NO 114 (peptide)
peptide: IVLSLDVPIGLLQILLEQARQRAAREQATTNARILARV-NH2
B28: SEQ ID NO 115 (peptide)
peptide: IVLSLDVPIGLLQILLEQEKQRAAREQATTNARILARV-NH2
B29: SEQ ID NO 116 (peptide)
peptide: IVLSLDVPIGLLQILLEQTKANAAREQATTVARILARV-NH2
B30: SEQ ID NO 12 (peptide)
peptide: ZGPPISIDLPFQLLRKMIEIEKQEKEKQQATNNRLLLATV
modifications: C-terminal amide
B31: SEQ ID NO 117 (peptide)
peptide: IVLSLDVPIGLLQILLEQTKARAAREQATTNARILARV-NH2
B32: SEQ ID NO 118 (peptide)
peptide: IVLSLDVPIGLLQILLEQERQEAAREQATTNARILARV-NH2
B33: SEQ ID NO 119 (peptide)
peptide: IVLSLDVPIGLLQILLEQERARAAREQATTNARILARV-NH2
B34: SEQ ID NO 120 (peptide)
peptide: IVLSLEVPIGLLQILLEQARARAAREQATTNARILARV-NH2
B35: SEQ ID NO 122 (peptide)
peptide: IVLSLDVPIGLLQILLEQARAEAAREQATTNARILARV-NH2
B36: SEQ ID NO 123 (peptide)
peptide: IVLSLDVPIGLLQILLEQARQEAAREQATTNARILARV-NH2

Assays:
[1] = target: T1, corticotropin releasing factor 2 …; experiment: cell-based or functional assay
[2] = target: corticotropin releasing factor 1 receptor; experiment: cell-based or functional assay
Throughout, for CRF1R Emax: reference of the scale not given here.
Throughout, for CRF2R Emax: reference of the scale not given here.

| Binder | CRF2R EC50 [1] [nM] | CRF2R Emax [1] [%] | CRF1R EC50 [2] [nM] | CRF1R Emax [2] [%] |
| --- | --- | --- | --- | --- |
| B1 | 100 | 12.6 | 100 | 11.2 |
| B2 | 100 | 12.2 | 100 | 4 |
| B3 | 100 | 7.1 | 100 | 4 |
| B4 | 100 | 15.8 | 100 | 4.6 |
| B5 | 100 | 6.4 | 100 | 5 |
| B6 | 100 | 6.15 | 100 | 7.3 |
| B7 | 100 | 8.25 | 100 | 5.55 |
| B8 | 100 | 12.5 | 100 | 16.3 |
| B9 | 100 | 19 | 100 | 4 |
| B10 | 100 | 7.6 | 100 | 4.25 |
| B11 | 100 | 5.5 | 100 | 4 |
| B12 | 100 | 4.35 | 100 | 4.35 |
| B13 | 100 | 9.85 | 100 | 6.25 |
| B14 | 100 | 6.95 | 100 | 7.35 |
| B15 | 100 | 13.5 | 100 | 7.8 |
| B16 | 100 | 4.85 | 100 | 5.75 |
| B17 | 100 | 4.5 | 100 | 11.1 |
| B18 | 100 | 9.15 | 100 | 5.2 |

| Binder | CRF2R EC50 [1] [nM] | CRF2R Emax [1] [%] | CRF1R EC50 [2] [nM] | CRF1R Emax [2] [%] |
| --- | --- | --- | --- | --- |
| B19 | 100 | 6.1 | 100 | 4.8 |
| B20 | 100 | 34 | 100 | 10 |
| B21 | 79 | 97 | > 100 | 3 |
| B22 | 11.8 | – | 100 | – |
| B23 | 11 | 100 | > 100 | 9 |
| B24 | 10.9 | 99 | > 100 | 9 |
| B25 | 12.3 | 100 | > 100 | 10 |
| B26 | 11.3 | 98 | > 100 | 4 |
| B27 | 3.42 | 100 | > 100 | 6 |
| B28 | 13.6 | 98 | > 100 | 7 |
| B29 | 100 | 26.4 | 100 | 4.8 |
| B30 | 9.72 | 91 | 928 | 73 |
| B31 | 9.41 | – | 100 | – |
| B32 | 14.6 | 100 | > 100 | 5 |
| B33 | 3.57 | 95 | > 100 | 3 |
| B34 | 69.9 | 100 | 100 | 7 |
| B35 | 3.31 | 97 | 1000 | 10.7 |
| B36 | 3.49 | 93.8 | > 1000 | 9.6 |
